The text below walks through data of a protein production outcome set (Wang et al. 2014).

This data set is described as follows: label from the status in PepcDB records.
As to “MTSDGATSTSAAAAAAAAAAARRKPSWRERENNRRRERRRRAVAAKIYTGLRAQGDYNLPKHCDNNEVLKALCVEAGWVVEEDGTTYRKPLPGEIAGTSSRVTPYSSQNQSPLSSAFQSPIPSYQVSPSSSSFPSPSRGEPNNNMSSTFFPFLRNGGIPSSLPSLRISNSCPVTPPVSSPTSKNPKPLPNWESIAKQSMAIAKQSMASFNYPFYAVSAPASPTHRHQFHTPATIPECDESDSSTVDSGHWISFQKFAQQQPFSASMVPTSPTFNLVKPAPQQMSPNTAAFQEIGQSSEFKFENSQVKPWEGERIHDVGMEDLELTLGNGKARG”, the protein production entry is on record as “failed”.

With “MVTLCQVFGVHRSSYRYWKNRPEKPDGRRAVLRSQVLELHGISHGSAGARSIATMATRRGYQMGRWLAGRLMKELGLVSCQQPTHRYKRGGHEHVAMPKWVILYCRRWMEAPMQSCENGELITRTRGTPQGGVISPLLANLFLHYAFDLWMEREYRGVPFERYADDIVVHCSRMSDATRLKNRLSERFSEVGLVLNAGKTNIAYIDTFKRRNVATSFTFLGYDFKVRTLKNFKGERYRKCMPGASNAAMRKITETIKKWRIHRSTAESLLDFARRYNTIVRGWIEYYGKFWSRNFNYRLWSAMQSRLLKWMQSKYRLSNRKAQRKLTLVRKEYPKLFVHWYLLRASNE”, the protein production result is on record as “failed”. As for “MKPENKIPVLTRLSDEMTAVVNFQQPGLPPWPADGDIETQRQYYLLERRFWNADAPSMTTRTCAVPTPYGDVTTRLYSPQPTSQATLYYLHGGGFILGNLDTHDRIMRLLARYTGCTVIGIDYSLSPQARYPQAIEETVAVCSYFSQHADEYSLNVEKIGFAGDSAGAMLALASALWLRDKHIRCGNVIAILLWYGLYGLQDSVSRRLFGGAWDGLTREDLDMYEKAYLRNDEDRESPWYCLFNNDLTRDVPPCFIASAEFDPLIDDSRLLHQTLQAHQQPCEYKMYPGTLHAFLHYSRMMTIADDALQDGARFFMARMKTPR”, the protein production result is “not failed”. On to “MKVTFMNLEERKKLETKSIDELDLIGKKVCVDTCVVIDGRITELIERGKLKDATIIIPEAVVSELEYQANMGREIGYKGIEELRKLIEKASEHNIKVEYYGERPTREEIFLAKSGEIDAMIRKVAKETNSILLTSDWIQYNLAKAQGIEAYFLEAAEEEVELVLD”, for which the protein production result is recorded as “not failed”. For “LVKETACAVVDKLKSGEVTPIEVLDVLEERIAEVDGAINALPTLCFDRARGHAAELMKKPPAERGLLAGLPVPIKDLTAVAGVLTTQGSPIYKDNVPARSDLMVEHLEGNGGVVYAKSNTPEFGAGANTFNEVFGATRNPWDLSRSAAGSSGGAAAALASGTAWLAHGSDMGGSLRNPASFCGIVGLRPSFGRVAHTPAAKIDRNLGVQGPMARNVEDVALLLDAMSGEYAADPLSIPSPATSFLAAARSRQKPLRVAYSPDLGITPVDPEVAAVTRKAAERFAEAGVIVEQAQPDLSEAHECFQALRAFDFAISKADLLRTKRDLLKPEVIWNIEQGLKLSVDDLAKAEAQRVAMTARTIEFFKTYDLLLCPATITAPFPVEQRYLAECNGHTFGNYVEWLGIVYAITLVCCPALSLPCGFTATGLPIGLQMVARPRNEAGLLAGAALLEDILGLKSTTP”, the protein production result is recorded as “failed”.

On to “MTSTTTSQQELFRFLEDRFACAQACTECARACALRASLVDPDGTENQELVRRRGIMCAEVCDATCRVLSEQNQVDEAAIRAQLEWCRQVCLESAHVFDDHPGAEESAQACRDCARACGEFLATLR”, for which the protein production entry is given as “failed”. On to “MTQKTGALIFDETADRYDIRFDLNDYYGGLHCGDCLEVFVRGKWKPTRMEYGDNWYLVGVRASDLNGLRVRILEHHHHHH”, for which the protein production entry is reported as “failed”. The value for “MKTDLIYGVEDRPPFKDALFAALQHLLAIFVAIITPPLIIASALKLDVEKTSFLVSMSLFASGVSTFIQCRRIGPIGAKLLCIQGTSFSFIGPIIATGLVGGLPLIFGSCIAAAPIEMVVSRTFKYLRNIITPLVSGIVVLLIGLSLIKVGIVSCGGGYSAMDDGSFGSWENLSIAALVLLSVLFFNRCKNKYLRMSSIVFGLCLGYGLAFALGKVNMSALNVEMLMSFNIPQPFKYGIDFNISSFIAIGLVYLITAIEATGDVTANSMISGLPIEGDSYLKRVSGGVMADGFNSLLAGIFNSFPNSIFAQNNGIIQLTGVASRYVGYYIAAMLVLLGLFPIVGAIFSLMPDPVLGGATLLMFGTVAAAGIRIVSSQEIGRKETLVLAVSLSLGLGVELMPDVLKQAPEAIRSIFSSGITTGGLTAIVANMVIRVK” was “not failed”; that for “MNTLIASLEKVILPFAVKIGKQPHVNAIKNGFIRLMPLTLTGAMFVLINNVFLSFGEGSFFYSLGVRLDASTIETLNSLKSIGGSVYNGTLGIMSLMTPFFISMALAEERKVDPLASALLAVAAFMTVTPFNVGEAYAVGANWLGGANIISGMVIGLAVAEMFAFIVRRNWVISLPDSVPASVSRSFSALIPGFIILSIMGLVAFALAHWGTNFHQIIMDGISAPLAKMGSVVGWVYVLFSSLLWFFGVHGSMALAALDSGIMTPFALENVELYNKYGSVEAAVAAGKEFHMWAKPFVDSYIYLGGTGSTLGLIIAIFIASRREDYRQVAKLATPSGIFQINEPILFGLPVIMNPVMFIPFILVQPVLTIITSLAYYSGLIPPITNIAPWTMPVGLGAFFNTNGSIMAMLLSLFNLAVATVIYLPFVAISNKAQSQIDAATESEEDIAKALKF” was “failed”; that for “MKIFGTDGVRGKAGVKLTPMFVMRLGIAAGLYFKKHSQTNKILIGKDTRKSGYMVENALVSALTSIGYNVIQIGPMPTPAIAFLTEDMRCDAGIMISASHNPFEDNGIKFFNSYGYKLKEEEEKAIEEIFHDEELLHSSYKVGESVGSAKRIDDVIGRYIAHLKHSFPKHLNLQSLRIVLDTANGAAYKVAPVVFSELGADVLVINDEPNGCNINDQCGALHPNQLSQEVKKYRADLGFAFDGDADRLVVVDNLGNIVHGDKLLGVLGVYQKSKNALSSQAVVATNMSNLALKEYLKSQDLELKHCAIGDKFVSECMQLNKANFGGEQSGHIIFSDYAKTGDGLVCALQVSALVLESKQVSSVALNPFELYPQSLVNLNVQKKPPLESLKGYSALLKELDKLEIRHLIRYSGTENKLRILLEAKDEKLLESKMQELKEFFEGHLC” was “failed”. For “MRCMSDDHTHVQEFFEARAADWDSRFPDDGPAHAAAVAELGLREGDRVLDAGCGTGRALPSLRAAVGSSGVVVGVDLTPAMLAAAARAGRGRDGHLLLADVTRLPLGTESLDAVFAAGLIAHLPEPAENLRELARVVRAGGTLALFHPIGRAALAARQGRQITPDDLRAEANLGPLLAGSGWRMTSYVDEDARFLALAVRVKLEHHHHHH”, the protein production entry is “failed”.

For “MNPENKMMLMAYGIFAIAGIISGILAYAPLGWIIGWIIYILAPKLLLNLVPDLPEELRNERVILRKTFWSFFFFWLYFTGLTYTLITNYEPVAYYEKALYYNITKG”, the protein production entry is reported as “failed”. As to “MVWLAVFLAVLGAFFLAIGAQRQGSAVKADTGGLALSSNGFLRLLRNPRWMLGLLFLALGMVMNAVALVSAPLTVVQPIGAIALVITTVVNAKDQGLSINRATVVAISACVTGSALFVLLAVNVTQENHHVNTEDELTIVLLLALAVGIFGTLAVVFRHRMSAFVYILGAGVLFGFVAVLTRIIGKHLLDPNGLFLLNVQWYTLIAIVAAGGLGSWFVQSAYSGGPPDLVIAGLTVIDPMVGIAIGIVILGELRPDVHAVMAIAMAAAATLAIVGVIALSRHHPEVTKRKKDAKAAASRKA”, the protein production entry is listed as “failed”. The same measure for “MGSVSTGNAGSGTVGTSTTSRADVMTFQPSSLPVSYVGETYNVQVGVTGGVGPYGYRLTAGTLPPGLKFAGGALSGTPTKAGSYSFAIQATDANLSTRVQEYTMNVDALPPLALKPTLPPGEIRGETRIPVTIQAPRAVRAARLSWDLGKDVQVTRVQPADAGSVVFWQQRGSVLTVDLGFRTVPRPDARIALITVKPAKAVTLKADALGYEARDGSGKMLVDKKRPGSEPVKPAEQPGDPKVDPKAADQKATDQKATDPKTVDPKTVTPADTVEGGPLPSPALPTPSLPPTLPPVTTPPANTPPVPTPTPPANQPAPAPAPQPAPAPQPTPPSGTGGALEHHHHHH”: “failed”.

For “MELSAVGERVFAAESIIKRRIRKGRIEYLVKWKGWAIKYSTWEPEENILDSRLIAAFEQKERERELYGPKKRGPKPKTFLLKARAQAEALRISDVHFSVKPSASASSPKLHSSAAVHRLKKDIRRCHRMSRRPLPRPDPQGGSPGLRPPISPFSETVRIINRKVKPREPKRNRIILNLKVIDKGAGGGGAGQGAGALARPKVPSRNRVIGKSKKFSESVLRTQIRHMKFGAFALYKPPPAPLVAPSPGKAEASAPGPGLLLAAPAAPYDARSSGSSGCPSPTPQSSDPDDTPPKLLPETVSPSAPSWREPEVLDLSLPPESAATSKRAPPEVTAAAGPAPPTAPEPAGASSEPEAGDWRPEMSPCSNVVVTDVTSNLLTVTIKEFCNPEDFEKVAAGVAGAAGGGGSIGASK”, the protein production result is “failed”.

For “MRSNTFIQFAATLVAFVAACLFPAWSMAATHNVVLSAETLPNGQPAYKLLSHTSSNGTVPGYATEATIPGPTLFIKTGDKINVQLTNNTQSPVSFTAPGLSTGNSALAAPGQTKSYRLNARKAGTFAYHDEKAPMLGLFGAIVVDESNGHVQSYVDGDGTIVSTKRSQLSKEFVLFMVGSTFWGAEISRNGNQQPLWANPDLGAYQDDLLRFHVLAVGPGHTFHLHAHRWIEPGSSQKTPHIIDTHILDDLNNSHVFTIKAGTGVGPGVWQLHCHLISHMQSGMNSRIHVVARDSGQSADSIVGASPSGAIFLNDSDQPGLVTFIVSDEPAGWFRSARGDALSPVTHTKSLEIIPPGSSVHFVMSDTAGVHTITSLLWPSEAGHNDHGGDHFMIPFDETKAYRGGAILKLNVPGLYVFTCKIHPFMFAAVIVDDPATDGLDLGNTIDLISGVKNLPTSSDLATRLLHTFFVTTVPKNWQDFTSPNPWKIAYPDVDVVVDIGKVSLPAVLNARYGNDISLSPLPRPAVPGIGEVWVDTQFEKTAGKTKPGTITVVDTSNWTLKRKIALPQINMNNPHNMWPNRDHSIVYTTQWFDNKLTAIKQKTGKLASNVQVGDSPSHVMTLPNTDDITVAINGENDIVIIPAGTTKVNYALLTQSHGQAPGNPHGHWISADGKRIITPNINTHDAGFYDVEDGKIVARTATGEGQPGAHPIAIGMLPDSSKVYAANLLHHSVSVMDGDGNFIKNINLIEHYDPISGAINGPIGILPIQSPVSPDGKVMVTASYGGQIVVIDTRTDSIVKSLPCDPGCHGANFGAKKGGGYYAYITNKFSNRLIVVDPDPNGDGDLSDAEIAGAVTLVADSRVPKDDKISSLAGFGGQGIVALPNVYNGWVQNLNSQWSAGLTDQQRNPVQ”, the protein production entry is “failed”. For the sequence “MTERKLVAERNFEVNGYDIDAMGIVSNIVYIRWFEDLRTDFINQYMPYSDMMNQQISPILMNTEAEYKTPITIHDKPVGRCYLVKASKLRWEFEFEIESEDAVHCIGKQSGTFFDLQKKKVTRLPEVFQTILSLEHHHHHH”, the protein production result was “failed”. As for “MGENNSHKHSLLFIVLISCAAGLGGLLYGYDTAVISGAIGFLKKLYNLSPAMQGFVISSIMVGGVLGVGFSGFLGDAIGRRKVLMLAAALFAISAVISSISTSAFMLIFARIVGGLGIGMASALSVTYITECAPPSIRGRLSSLYQLFTILGISITFFVNLGIVNMGSETWRVSTGWRYMLACGTVPAIVFLITLFFVPESPRFLVKSGNIKKAAAVLTKINGAEIAKQELDSISKSLATENDSSLGQLLQPGLRRALLIGIFLAIFNQAIGMNSITYYGPEIFQMIGFKNNSSFLATSVIGVVEVFSTILAMFLIDKLGRKKLMEIGSAAMAVFMLLIGTSFYIKLSNGFVILIFIICFVVSFCISMGPIPWIMIPEIFPNHLRARATGIATIFLWGANWAIGQFTPMLLNGIGGAYTFWIFCGINVICFLVVTTKVPETKNKSLEEIEKFWIPKSKQNAKGSSVGAK”, the protein production entry is recorded as “failed”.
